The chains are these.
T1: human IL-17A homodimer (human, UniProt Q16552 20-155, limits assumed)
T1 sequence (looked up): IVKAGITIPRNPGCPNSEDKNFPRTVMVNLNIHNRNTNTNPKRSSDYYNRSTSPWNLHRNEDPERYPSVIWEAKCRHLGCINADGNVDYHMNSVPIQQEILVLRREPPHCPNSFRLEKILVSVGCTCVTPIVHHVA

T2: cynomolgus IL-17A homodimer (cynomolgus, UniProt A0A2K5TTB0 20-155)
T2 sequence: T1 sequence (looked up) with T7A, P12S, N38S, I81V, N82K, P108R

T3: human IL-17A/IL-17F heterodimer (human, UniProt Q16552 24-155; Q96PD4 31-163, limits assumed)
T3 construct: Bought heterodimer; also called hu IL17A-F heterodimer; huIL-17A/F
T3 sequence (looked up) 1: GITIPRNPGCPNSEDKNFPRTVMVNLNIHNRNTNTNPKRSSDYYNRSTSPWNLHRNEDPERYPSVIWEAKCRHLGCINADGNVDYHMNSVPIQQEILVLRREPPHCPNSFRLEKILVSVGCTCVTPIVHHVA
T3 sequence (looked up) 2: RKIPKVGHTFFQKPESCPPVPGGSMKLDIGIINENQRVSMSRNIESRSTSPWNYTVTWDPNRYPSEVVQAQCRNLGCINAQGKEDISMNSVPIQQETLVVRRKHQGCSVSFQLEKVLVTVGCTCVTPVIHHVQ

T4: mouse IL-17A homodimer (mouse, UniProt Q62386 26-158, limits assumed)
T4 sequence (looked up): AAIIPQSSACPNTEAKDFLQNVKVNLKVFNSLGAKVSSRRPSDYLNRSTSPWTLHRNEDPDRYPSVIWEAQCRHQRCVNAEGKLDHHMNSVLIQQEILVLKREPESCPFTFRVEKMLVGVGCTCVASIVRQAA

T5: cynomolgus IL-17F homodimer (cynomolgus, UniProt G7P4V0 31-163)
T5 sequence: T3 sequence (looked up) 2 with G22E, I29T, R73K, N74H, V100L, I129V

T6: rat IL-17A homodimer (rat, UniProt Q61453 18-150, limits assumed)
T6 sequence (looked up): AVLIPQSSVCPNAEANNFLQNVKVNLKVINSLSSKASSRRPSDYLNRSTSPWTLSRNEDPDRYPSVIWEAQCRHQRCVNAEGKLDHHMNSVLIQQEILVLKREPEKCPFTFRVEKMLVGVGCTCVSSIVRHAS

T7: mouse IL-17F homodimer (mouse, UniProt Q7TNI7 29-161, limits assumed)
T7 sequence (looked up): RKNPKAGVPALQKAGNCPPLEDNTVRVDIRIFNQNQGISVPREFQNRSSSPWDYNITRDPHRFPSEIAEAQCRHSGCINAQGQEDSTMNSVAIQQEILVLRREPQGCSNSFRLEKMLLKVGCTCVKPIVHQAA

B1: 39F12 antibody (antibody, IgG4, V domains shown)
VH: QVQLVQSGAEVKKPGSSVKVSCKASGGTLSSYAFSWVRQAPGQGLEWMGGIIPFFGTTNYAQKFQGRVIITADESTNTAYMELSGLRSEDTAVYYCARDRDYYGLGSPFYYYGMDVWGQGTTVTVSS
VL: EIVLTQSPDFQSVTPKEKVTITCRASQSIGSSLHWYQQKPDQSPKLLIKYASQSFSGVPSRFSGSGSGTDFTLTINSLEAEDAAAYYCHQSSSLPWTFGQGTKVEIK
notes: also called Mab06a; 39F12 IgG4
B2: 30D12 antibody (antibody, IgG1, V domains shown)
VH: QVQLVQSGAEVKKPGASVKVSCKASGYTFTSYDINWVRQATGQGLEWMGWMNPDSGVIRYAQKFQGRVTMTRNTSISTAYMELNSLRSEDTAVYYCAREWFGELPSYYFYSGMDVWGQGTTVTVSS
VL: EIVLTQSPATLSLSPGERATLSCRASQSVSSYLAWYQQKPGQAPRLLIYDASNRATGIPARFSGSGSGTDFTLTISSLEPEDFAVYYCQQRSNWPPTFGPGTKVDIK
notes: Fully human monoclonal antibody; also called 30D12 IgG1
B3: 4B11 antibody (antibody, IgG1, V domains shown)
VH: QLQLQESGPGLVKPSETLSLTCAVSDDYISSRSYYWGWIRQPPGKGLEWIGSIYYSGSTYYNPSLKSRVTISVDTSKNQFSLKVSSVTATDTAVYYCARVSGWNGNWFDPWGQGTLVTVSS
VL: not shown
notes: also called 4B11 IgG1
B4: 15E6 antibody (antibody, IgG4, V domains shown)
VH: EVQLVESGGGLVQPGRSLRLSCAASGFTFDDYAMHWVRQAPGKGLEWVSGINWNSGGIGYADSVKGRFTISRDNAKNSLYLQMNSLRAEDTALYYCARDMGGFGEFYWNFGLWGRGTLVTVSS
VL: not shown
notes: also called 15E6 IgG4
B5: 4H11 antibody (antibody, IgG1, V domains shown)
VH: EVQLVESGGGLVQPGGSLKLSCAASGFTFSGSSMHWVRQASGKGLDWVGRIRSKANSYATAYAASVIGRFTISRDDSKNTAYLQMNSLKTEDTAVYYCTTSVATTLTDYYGMDVWGQGTTVTVSS
VL: EIVLTQSPATLSLSPGERATLSCRASQSVSSYLAWYQQKPGQAPRLLIYDASNRATGIPARFSGSGSGTDFTLTISSLEPEDFAVYYCQQRSNWPPFTFGPGTKVDIK
notes: also called Mab09; 4H11 IgG1
B6: 12B12 antibody (antibody, IgG4, V domains shown)
VH: B1 VH with T58V, I69T, G85S, F109L, Y110H, M114L
VL: B1 VL
B7: 15B7 antibody (antibody, IgG4, V domains shown)
VH: B1 VH with T58A, N59H, I69T, G85S, L105S, Y110H, Y111F, Y112S, M114L
VL: B1 VL
B8: 38B1 antibody (antibody, IgG1, V domains shown)
VH: EVQLVESGGGLVQPGRSLRLSCAASGFTFDDFAMHWVRQAPGKGLEWVSGINWNSGSIGYADSVKGRFTISRDNAKNSLYLQMNSLRAEDTALYYCAKDIAAAGEFYFDMDVWGQGTTVTVSS
VL: B2 VL with P100Q, V104L, D105E
notes: also called 38B1 IgG1

These results are taken from patent US20130195872A1 (NOVIMMUNE S A, published 2013).

Substitutions are numbered along the chain they refer to.

The first experiment addresses T1, human IL-17A homodimer. Kind of experiment: cell-based or functional assay.
In the case of B1, the “IC50, IL-6 secretion by HFFF2 human fibroblasts, cytokine at 25 ng/ml” value came to 14 nM.

In the case of B2, the “IC50, IL-6 secretion by HFFF2 human fibroblasts, cytokine at 25 ng/ml” value came out at 4.2 nM.

On to B3, for which the “IC50, IL-6 secretion by HFFF2 human fibroblasts, cytokine at 25 ng/ml” value is more than 1000 nM.

In the case of B4, the “IC50, IL-6 secretion by HFFF2 human fibroblasts, cytokine at 25 ng/ml” value was 3.9 nM.

For the molecule B5, the “IC50, IL-6 secretion by HFFF2 human fibroblasts, cytokine at 25 ng/ml” value was 108 nM.

A further experiment deals with T2, cynomolgus IL-17A homodimer. Kind of experiment: cell-based or functional assay.
With B1, the “IC50, IL-6 secretion by HFFF2 human fibroblasts, cytokine at 25 ng/ml” value was 15 nM.

Turning to B2, the “IC50, IL-6 secretion by HFFF2 human fibroblasts, cytokine at 25 ng/ml” value is 6.6 nM.

On to B4, for which the “IC50, IL-6 secretion by HFFF2 human fibroblasts, cytokine at 25 ng/ml” value worked out at 4.5 nM.

For another experiment, the target named is T1, human IL-17A homodimer. Description: SPR Biacore, mAb captured, cytokine as analyte. A general note: Surface plasmon resonance follows binding to a sensor surface in real time, without labels.
Description: (§1) The affinity and binding kinetics of huIL-17F cross-reactive antibodies were characterized on a Biacore 2000 instrument (Biacore AB, Uppsala, Sweden). […] This surface was used to capture huIL-17A/F antibodies. The surface was regenerated after each cycle by injection of 10 mM glycine pH=1.5 at 20 μL/min, for 30 s followed by 1 min of stabilization time in HBS-EP buffer (Biacore AB, Uppsala, Sweden).
(§2) All solutions were diluted in HBS-EP buffer. Injection was performed at 75 μl/min for 3 min followed by 12 min of dissociation time and the temperature was set at 25° C.
On to B1, for which the Kd (as a rule, the equilibrium constant for the complex coming apart) was found to be 0.0895 nM.

B2 returned a Kd of 0.0594 nM.

Take B4: the equilibrium dissociation constant (Kd) is 0.0364 nM.

In a further experiment the target is T3, human IL-17A/IL-17F heterodimer. Description: SPR Biacore, mAb captured, cytokine as analyte.
Description: as §1, §2
For B1, the Kd worked out at 0.402 nM.

Take B2: binding was characterised by a dissociation constant (Kd) of 0.0981 nM.

With B4, the Kd worked out at 0.0447 nM.

The next experiment addresses T4, mouse IL-17A homodimer. Kind of experiment: cell-based or functional assay.
Regarding B6, the “IC50, IL-6 secretion by MEF cells, cytokine at 5 ng/ml” value (“IC50, IL-6 secretion … at 5 ng/ml” below) was more than 1000 nM.

Regarding B1, the “IC50, IL-6 secretion … at 5 ng/ml” value was more than 1000 nM.

As for B7, the “IC50, IL-6 secretion … at 5 ng/ml” value was more than 1000 nM.

For the next experiment, the target named is T5, cynomolgus IL-17F homodimer. Kind of experiment: cell-based or functional assay.
With B6, the “IC50, IL-6 secretion by MEF cells, cytokine at 25 ng/ml” value amounted to 3.2 nM.

Consider B1, for which the “IC50, IL-6 secretion by MEF cells, cytokine at 25 ng/ml” value was 5.2 nM.

As to B7, the “IC50, IL-6 secretion by MEF cells, cytokine at 25 ng/ml” value was determined as 15 nM.

Consider B2, for which the “IC50, IL-6 secretion by MEF cells, cytokine at 25 ng/ml” value came out at 130 nM.

Turning to B4, the “IC50, IL-6 secretion by MEF cells, cytokine at 25 ng/ml” value was 1.4 nM.

Another experiment has as its target T1, human IL-17A homodimer. Kind of experiment: cell-based or functional assay. The source holds these as a separate data set.
In the case of B6, the “IC50, IL-6 secretion … at 5 ng/ml” value stood at 33 nM.

Turning to B1, the “IC50, IL-6 secretion … at 5 ng/ml” value is 9.8 nM.

In the case of B7, the “IC50, IL-6 secretion … at 5 ng/ml” value stood at 180 nM.

As to B2, the “IC50, IL-6 secretion … at 5 ng/ml” value was 1.1 nM.

With B8, the “IC50, IL-6 secretion … at 5 ng/ml” value was more than 1000 nM.

B3: the “IC50, IL-6 secretion … at 5 ng/ml” value worked out at 680 nM.

Turning to B4, the “IC50, IL-6 secretion … at 5 ng/ml” value was found to be 1.6 nM.

Consider B5, for which the “IC50, IL-6 secretion … at 5 ng/ml” value worked out at 87 nM.

A further experiment has as its target T2, cynomolgus IL-17A homodimer. Description: cell-based or functional assay. The source holds these as a separate data set.
In the case of B6, the “IC50, IL-6 secretion … at 5 ng/ml” value is 13 nM.

For B1, the “IC50, IL-6 secretion … at 5 ng/ml” value was determined as 4.7 nM.

B7: the “IC50, IL-6 secretion … at 5 ng/ml” value came to 140 nM.

Take B2: the “IC50, IL-6 secretion … at 5 ng/ml” value was 3 nM.

For B4, the “IC50, IL-6 secretion … at 5 ng/ml” value was found to be 2 nM.

In the next experiment the target is T6, rat IL-17A homodimer. Kind of experiment: cell-based or functional assay.
For the molecule B6, the “IC50, IL-6 secretion … at 5 ng/ml” value was more than 1000 nM.

As for B1, the “IC50, IL-6 secretion … at 5 ng/ml” value is more than 1000 nM.

For the molecule B7, the “IC50, IL-6 secretion … at 5 ng/ml” value is more than 1000 nM.

As for B2, the “IC50, IL-6 secretion … at 5 ng/ml” value was more than 1000 nM.

The next experiment addresses cynomolgus IL-17A/IL-17F heterodimer (cynomolgus). Description: cell-based or functional assay.
With B1, the “IC50, IL-6 secretion by MEF cells, cytokine at 25 ng/ml” value was 16 nM.

Take B2: the “IC50, IL-6 secretion by MEF cells, cytokine at 25 ng/ml” value turned out to be 15 nM.

Turning to B4, the “IC50, IL-6 secretion by MEF cells, cytokine at 25 ng/ml” value was 0.18 nM.

A further experiment concerns the target T7, mouse IL-17F homodimer. Description: cell-based or functional assay.
In the case of B6, the “IC50, IL-6 secretion by MEF cells, cytokine at 50 ng/ml” value (“IC50, IL-6 secretion … at 50 ng/ml” for short) is 4.2 nM.

As to B1, the “IC50, IL-6 secretion … at 50 ng/ml” value stood at 4 nM.

For the molecule B7, the “IC50, IL-6 secretion … at 50 ng/ml” value was determined as 22 nM.

For B4, the “IC50, IL-6 secretion … at 50 ng/ml” value was more than 1000 nM.

In a further experiment the target is T3, human IL-17A/IL-17F heterodimer. Description: cell-based or functional assay.
With B6, the “IC50, IL-6 secretion by MEF cells, cytokine at 17.5 ng/ml” value (shortened to “IC50, IL-6 secretion … at 17.5 ng/ml”) is 13 nM.

For B1, the “IC50, IL-6 secretion … at 17.5 ng/ml” value came out at 11 nM.

As for B7, the “IC50, IL-6 secretion … at 17.5 ng/ml” value worked out at 160 nM.

B2: the “IC50, IL-6 secretion … at 17.5 ng/ml” value worked out at 31 nM.

As for B8, the “IC50, IL-6 secretion … at 17.5 ng/ml” value was 910 nM.

In the case of B3, the “IC50, IL-6 secretion … at 17.5 ng/ml” value worked out at 810 nM.

On to B4, for which the “IC50, IL-6 secretion … at 17.5 ng/ml” value was determined as 1.1 nM.

For the molecule B5, the “IC50, IL-6 secretion … at 17.5 ng/ml” value turned out to be 810 nM.

The next experiment concerns the target T5, cynomolgus IL-17F homodimer. Kind of experiment: FLISA, cytokine on beads.
Description: (§3) After an incubation period of 2 to 8 hours the fluorescence of the beads was measured in an 8200 Cellular Detection System analyzer (Applied Biosystems). Hybridomas producing human IgGs that bound to huIL-17F, huIL-17A or both huIL-17F and huIL-17A, but not to BSA, were expanded and subjected to further analysis.
(§4) huIL-17F antibodies were tested for their ability to bind to the other members of the IL-17 family of cytokines, as well as to IL-17A and IL-17F from other species. The assay was performed in the FLISA format, as described above.
As for B8, the binding result is “binds”.

Regarding B3, the binding result is reported as “binds”.

Take B5: the binding result is listed as “binds”.

The target in another experiment is T2, cynomolgus IL-17A homodimer. Kind of experiment: FLISA, cytokine on beads.
Description: as §3, §4
With B8, the binding result is given as “binds”.

On to B3, for which the binding result was “binds”.

B5: the binding result is “binds”.
